Experimental data: ChEMBL document CHEMBL2073952, “Na(+)-coupled transport of L-carnitine via high-affinity carnitine transporter OCTN2 and its subcellular localization in kidney” (Biochim Biophys Acta, 2001)

Substrate: C[N+](C)(C)CC(O)CC(=O)[O-]
Assay: TP_TRANSPORTER: uptake in membrane vesicle from OCTN2-expressing HEK 293 cell
Type: functional, cell membranes, HEK293

B1: Organic cation/carnitine transporter 2 (Homo sapiens) (protein)
chain: MRDYDEVTAFLGEWGPFQRLIFFLLSASIIPNGFTGLSSVFLIATPEHRCRVPDAANLSSAWRNHTVPLRLRDGREVPHSCRRYRLATIANFSALGLEPGRDVDLGQLEQESCLDGWEFSQDVYLSTIVTEWNLVCEDDWKAPLTISLFFVGVLLGSFISGQLSDRFGRKNVLFVTMGMQTGFSFLQIFSKNFEMFVVLFVLVGMGQISNYVAAFVLGTEILGKSVRIIFSTLGVCIFYAFGYMVLPLFAYFIRDWRMLLVALTMPGVLCVALWWFIPESPRWLISQGRFEEAEVIIRKAAKANGIVVPSTIFDPSELQDLSSKKQQSHNILDLLRTWNIRMVTIMSIMLWMTISVGYFGLSLDTPNLHGDIFVNCFLSAMVEVPAYVLAWLLLQYLPRRYSMATALFLGGSVLLFMQLVPPDLYYLATVLVMVGKFGVTAAFSMVYVYTAELYPTVVRNMGVGVSSTASRLGSILSPYFVYLGAYDRFLPYILMGSLTILTAILTLFLPESFGTPLPDTIDQMLRVKGMKHRKTPSHTRMLKDGQERPTILKSTAF
Km: 2.66 µM
